Columns and labels:
Assay in all cases: SPR
[1] = molecular target: recombinant human FcγRIIIa F158 (human) (UniProt P08637)
[2] = molecular target: recombinant human FcγRIa (human) (UniProt P12314)
[3] = molecular target: recombinant human FcγRIIb (human) (UniProt P31994)
[4] = molecular target: recombinant human FcRn (human) (UniProt P55899)
[5] = molecular target: recombinant human FcγRIIIb (human) (UniProt O75015)
[6] = molecular target: recombinant human FcγRIIIa V158 (human)
recombinant human FcγRIIIa V158 (human), sequence (P08637 17-208): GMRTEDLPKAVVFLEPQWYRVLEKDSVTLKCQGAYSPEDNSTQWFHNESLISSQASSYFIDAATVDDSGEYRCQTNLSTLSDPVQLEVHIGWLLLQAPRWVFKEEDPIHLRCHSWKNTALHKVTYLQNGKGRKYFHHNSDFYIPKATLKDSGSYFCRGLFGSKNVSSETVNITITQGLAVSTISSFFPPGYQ

UniProt P55899, sequence (P55899 24-297): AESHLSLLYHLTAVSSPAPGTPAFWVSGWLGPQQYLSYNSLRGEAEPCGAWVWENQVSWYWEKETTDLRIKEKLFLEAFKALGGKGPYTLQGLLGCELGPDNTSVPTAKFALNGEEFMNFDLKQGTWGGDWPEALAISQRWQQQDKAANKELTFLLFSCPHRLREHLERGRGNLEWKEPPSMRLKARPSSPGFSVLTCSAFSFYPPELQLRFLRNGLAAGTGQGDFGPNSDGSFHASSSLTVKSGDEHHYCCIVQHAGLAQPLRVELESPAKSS
UniProt P12314, sequence (P12314 16-374): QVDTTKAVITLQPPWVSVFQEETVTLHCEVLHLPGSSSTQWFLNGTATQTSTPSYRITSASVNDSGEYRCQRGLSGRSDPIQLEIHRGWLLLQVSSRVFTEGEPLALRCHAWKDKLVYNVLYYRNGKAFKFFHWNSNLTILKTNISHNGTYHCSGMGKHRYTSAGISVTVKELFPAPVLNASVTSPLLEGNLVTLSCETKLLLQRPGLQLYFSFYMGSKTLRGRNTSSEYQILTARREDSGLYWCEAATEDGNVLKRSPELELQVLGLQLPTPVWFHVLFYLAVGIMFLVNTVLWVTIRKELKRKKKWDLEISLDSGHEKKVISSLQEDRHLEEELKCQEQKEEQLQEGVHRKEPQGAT
UniProt P31994, sequence (P31994 43-310): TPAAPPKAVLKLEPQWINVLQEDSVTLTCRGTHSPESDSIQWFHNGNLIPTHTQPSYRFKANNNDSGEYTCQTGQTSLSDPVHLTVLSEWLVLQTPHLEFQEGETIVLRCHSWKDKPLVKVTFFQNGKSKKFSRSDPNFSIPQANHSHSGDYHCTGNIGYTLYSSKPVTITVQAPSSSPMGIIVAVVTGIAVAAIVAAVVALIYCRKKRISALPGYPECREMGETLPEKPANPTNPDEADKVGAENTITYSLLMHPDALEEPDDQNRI
UniProt O75015, sequence (O75015 17-200): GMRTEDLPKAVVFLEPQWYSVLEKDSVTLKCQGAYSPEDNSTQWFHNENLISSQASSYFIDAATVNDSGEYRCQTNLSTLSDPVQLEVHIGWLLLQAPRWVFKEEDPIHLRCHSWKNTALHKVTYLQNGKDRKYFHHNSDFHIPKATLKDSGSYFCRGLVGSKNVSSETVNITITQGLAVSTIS

Kd [1] | Kd [2] | Kd [3] | Kd [4] | Kd [5] | Kd [6] | Substance
7.4 to 10.3 µM | 0.0104 to 0.0118 µM | 11.4 to 12.8 µM | 0.55 to 0.58 µM | 9.2 to 11.7 µM | 3.5 to 4.9 µM | originator rituximab (antibody)
8.5 to 10.9 µM | 0.0109 to 0.0124 µM | 11 to 12.7 µM | 0.54 to 0.58 µM | 9.9 to 12.4 µM | 4.2 to 5 µM | proposed biosimilar rituximab GP2013 (antibody)

Reference: article PMC3775154
